# Test results: the supplement of paper PMC11865577
# Columns and labels:
# Test in all cases: pull-down binding Z-score (relative to library population); higher = stronger binding
# Settings in all cases: RNA library: Library-2
# [1] = tested on: TO-3-N3 (biotin conjugate)
# Outline: (§1)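 Heat-folded RNA library (1 μg, Cy5 or Cy3 end label, phosphate/NaCl/KCl buffer) was captured for 60 min at 25 °C on streptavidin beads displaying 100 pmol of biotin-conjugated small molecule, then washed three times. The bound fraction, eluted in hot SDS, was hybridised to a DNA barcode microarray at 55.5 °C for 20 h. Z-scores for binding were taken against the library mean and standard deviation after beads-only subtraction and trimmed averaging of replicate barcoded probes.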
# [2] = tested on: TO-3-N3-2 (biotin conjugate)
# Outline: as §1
# [3] = tested on: TO-N3 (biotin conjugate)
# Outline: as §1
# [4] = tested on: TO-N3-2 (biotin conjugate)
# Outline: as §1
Sequence,pull-down binding Z-score [1],pull-down binding Z-score [2],pull-down binding Z-score [3],pull-down binding Z-score [4]
GGGGCUGAGAAACCAAAGUUUC [IAV_invivo_PA_3_Motif_3+IAV_invivo_PA_3_Motif_3],0.484,0.214,0.788,0.822
GGGGUGAAGAGGAUACUUACCUG [U1snRNP5ss-12],0.145,0.365,0.427,0.523
GGGGUGUACAUCAAUACUGCCUU [IAV_invivo_PA_3_Motif_19+IAV_invivo_PA_3_Motif_19],1.11,0.332,1.4,0.595
GGGUACGACUUUGAAAGGGAGGGAUACUCUCUAGUCGGAAUAGACCC [IAV_invivo_NP_5_Motif_16+IAV_invivo_NP_5_Motif_16],0.779,0.439,0.986,0.638
GGGUAGGGUUUGGGGGAGAGCGUGGGCUGGGGUUCAGGGACA [pre-miRNA-1229_WT_FL],7.43,8.09,6.62,5.13
GGGUAGGGUUUGGGGGAGAGUGUGGGCUGGGGUUCAGGGACA [pre-miRNA-1229_SNP_FL],6.68,7.5,6.27,4.79
GGGUAGUGGUGAGCAUUGACC [IAV_invivo_PB2_1_Motif_22+IAV_invivo_PB2_1_Motif_22],1.17,0.601,1.28,0.804
GGGUCGGUUGCUCACAAGUCCUGCCUGCCUGCCU [IAV_invivo_NP_5_Motif_15+IAV_invivo_NP_5_Motif_15],0.283,0.184,0.865,1.7
GGGUGGGUGGGUGGGUGGGUGGGU [G4_r(GGGU)6],9.01,10.9,7.43,5.53
GGGUGGGUGGGUGGGUGGGUGGGUGGGUGGGU [G4_r(GGGU)8],9.08,10.2,7.37,5.15
GGGUUGGGUUGGGUUGGGUUGGGUUGGGUU [G4_r(GGGUU)6],7.99,10.1,6.75,5.08
GGGUUGGGUUGGGUUGGGUUGGGUUGGGUUGGGUUGGGUU [G4_r(GGGUU)8],8.9,10.2,7.46,5.93
GGGUUUACAAACAAUUUGAUACUUAUAACCU [DMSMaPseq_invitro_SARS-CoV-2_Motif_347],-0.652,-0.105,-0.828,-1.11
GGUAAAAUUGUUAAUAAUUGGUUGAAGCAGUUAAUUAAAGUUACACUUGUGUUCCUUUUUGUUGCUGCUAUUUUCUAUUUAAUAACACC [DMSMaPseq_invitro_SARS-CoV-2_Motif_156],-0.485,-0.271,-0.828,-1.04
GGUAAUUAUACAGUUUCCUGUUUACC [DMSMaPseq_invitro_SARS-CoV-2_Motif_504],-0.536,-0.713,-1.05,-0.867
GGUAAUUAUACAGUUUCCUGUUUACCUUUUACAAUUAAUUGCC [SHAPE_invitro_SARS-CoV-2_Motif_513],-0.718,0.0742,-1.04,-1.1
GGUACAACAACUUACAAAUUAAAUGUUGGUGAUUAUUUUGUGCU [SHAPE_invivo_SARS-CoV-2_Motif_319],-0.537,-0.134,-0.509,-0.524

Sequence,pull-down binding Z-score [1],pull-down binding Z-score [2],pull-down binding Z-score [3],pull-down binding Z-score [4]
GGUACAUUUACUUGUGCU [SHAPE_invivo_SARS-CoV-2_Motif_118],0.677,-0.344,0.678,-0.222
GGUACGUUAAUAGUUAAUAGCGUACUUCUUUUUCUUGCUUUCGUGGUAUUCUUGCUAGUUACACUAGCCAUCCUUACUGCGCUUCGAUUGUGUGCGUACU,0.654,-0.0614,0.41,-0.294
GGUCAAAUCAAUGAUAUGAUUUUAUC,-0.859,-0.505,-1.26,-1.3
GGUCAGAAUGAUC [IAV_invivo_NP_5_Motif_12+IAV_invivo_NP_5_Motif_12],-0.394,-0.0405,-0.601,-0.437
GGUCCAGAACAAACCCAAGGAAAUUUUGGGGACC,0.213,0.197,0.0164,-0.00332
GGUCCAGCAACAGCUCAAAUGGCC [IAV_invivo_PB1_2_Motif_29+IAV_invivo_PB1_2_Motif_29],-0.414,-0.356,-0.26,0.392
GGUCUAUAUGCC [SHAPE_invivo_SARS-CoV-2_Motif_218],0.153,-0.349,0.0896,-0.475
GGUCUCCGACGGAGGCC [IAV_invivo_PB1_2_Motif_32+IAV_invivo_PB1_2_Motif_32],0.0169,-0.224,-0.183,-1.15
GGUCUGCAGGACU [IAV_invivo_PA_3_Motif_27+IAV_invivo_PA_3_Motif_27],0.0311,-0.237,-0.125,-0.231
GGUGAAGGACGGGUCCAGUAGUUCGCUACUGUUGAGUAGAGUGUGAGCUCC [BabySpinach],1.09,0.648,2.08,2.02
GGUGACAACAACC [IAV_invivo_M1_M2_7_Motif_11+IAV_invivo_M1_M2_7_Motif_11],-0.283,-0.31,-0.366,-0.457
GGUGCUCCCAAGAGGGAAGCU [IAV_invivo_NP_5_Motif_18+IAV_invivo_NP_5_Motif_18],-0.0194,-0.165,0.405,0.775
GGUGGAAUUGGACGAUUCUACAUCCAAAUGUGCACC [IAV_invivo_NP_5_Motif_3+IAV_invivo_NP_5_Motif_3],-0.714,-0.333,-0.779,-0.454
GGUGGCAAACCUUGUAUCAAAGUAGCCACU [SHAPE_invitro_SARS-CoV-2_Motif_216],-0.569,-0.373,-0.798,-0.605
GGUGGUAUUGUAGCUAUCGUAGUAACAUGCCUUGCC,0.56,-0.0179,0.693,0.0259
GGUGUGGAUGGCAUGCC [IAV_invivo_NP_5_Motif_17+IAV_invivo_NP_5_Motif_17],-0.0853,-0.0718,-0.121,0.0568
GGUGUUGCAGGAGCCUUAAAUAAGGCUACUAACAAUGCC [SHAPE_invivo_SARS-CoV-2_Motif_68],-0.697,-0.474,-0.882,-1.05
